Positions of bridges follow the written chain, without caps; N, C: chain ends. Non-standard residues stand in square brackets, D forms with d. Trp(1-Me) = Cn1cc(C[C@H](N)C(=O)O)c2ccccc21; Sar = CNCC(=O)O A value given as a limit tells only on which side of the number the result lay.

B1: Compound 79 (peptide)
peptide: Ac-SEFCI[Trp(1-Me)]QDW[Sar]EHRC[Sar]E-NH2
modifications: disulfide 4-14
SMILES: CC[C@H](C)[C@@H]1NC(=O)[C@@H](NC(=O)[C@H](Cc2ccccc2)NC(=O)[C@H](CCC(=O)O)NC(=O)[C@H](CO)NC(C)=O)CSSC[C@@H](C(=O)N(C)CC(=O)N[C@@H](CCC(=O)O)C(N)=O)NC(=O)[C@H](CCCNC(=N)N)NC(=O)[C@H](Cc2c[nH]cn2)NC(=O)[C@H](CCC(=O)O)NC(=O)CN(C)C(=O)[C@H](Cc2c[nH]c3ccccc23)NC(=O)[C@H](CC(=O)O)NC(=O)[C@H](CCC(N)=O)NC(=O)[C@H](Cc2cn(C)c3ccccc23)NC1=O
B2: Compound 83 (peptide)
peptide: Ac-SEFCI[Trp(1-Me)]QEWGEHRC[Sar]EA-NH2
modifications: disulfide 4-14
SMILES: CC[C@H](C)[C@@H]1NC(=O)[C@@H](NC(=O)[C@H](Cc2ccccc2)NC(=O)[C@H](CCC(=O)O)NC(=O)[C@H](CO)NC(C)=O)CSSC[C@@H](C(=O)N(C)CC(=O)N[C@@H](CCC(=O)O)C(=O)N[C@@H](C)C(N)=O)NC(=O)[C@H](CCCNC(=N)N)NC(=O)[C@H](Cc2c[nH]cn2)NC(=O)[C@H](CCC(=O)O)NC(=O)CNC(=O)[C@H](Cc2c[nH]c3ccccc23)NC(=O)[C@H](CCC(=O)O)NC(=O)[C@H](CCC(N)=O)NC(=O)[C@H](Cc2cn(C)c3ccccc23)NC1=O
B3: Compound 87 (peptide)
peptide: Ac-GEFCI[Trp(1-Me)]QDWGEHRC[Sar]EA-NH2
modifications: disulfide 4-14
SMILES: CC[C@H](C)[C@@H]1NC(=O)[C@@H](NC(=O)[C@H](Cc2ccccc2)NC(=O)[C@H](CCC(=O)O)NC(=O)CNC(C)=O)CSSC[C@@H](C(=O)N(C)CC(=O)N[C@@H](CCC(=O)O)C(=O)N[C@@H](C)C(N)=O)NC(=O)[C@H](CCCNC(=N)N)NC(=O)[C@H](Cc2c[nH]cn2)NC(=O)[C@H](CCC(=O)O)NC(=O)CNC(=O)[C@H](Cc2c[nH]c3ccccc23)NC(=O)[C@H](CC(=O)O)NC(=O)[C@H](CCC(N)=O)NC(=O)[C@H](Cc2cn(C)c3ccccc23)NC1=O
B4: Compound 80 (peptide)
peptide: Ac-EFCI[Trp(1-Me)]QDWGEHRC[Sar]EA-NH2
modifications: disulfide 3-13
SMILES: CC[C@H](C)[C@@H]1NC(=O)[C@@H](NC(=O)[C@H](Cc2ccccc2)NC(=O)[C@H](CCC(=O)O)NC(C)=O)CSSC[C@@H](C(=O)N(C)CC(=O)N[C@@H](CCC(=O)O)C(=O)N[C@@H](C)C(N)=O)NC(=O)[C@H](CCCNC(=N)N)NC(=O)[C@H](Cc2c[nH]cn2)NC(=O)[C@H](CCC(=O)O)NC(=O)CNC(=O)[C@H](Cc2c[nH]c3ccccc23)NC(=O)[C@H](CC(=O)O)NC(=O)[C@H](CCC(N)=O)NC(=O)[C@H](Cc2cn(C)c3ccccc23)NC1=O
B5: Compound 84 (peptide)
peptide: Ac-SEFCI[Trp(1-Me)]QDWGEHRCSEA-NH2
modifications: disulfide 4-14
SMILES: CC[C@H](C)[C@@H]1NC(=O)[C@@H](NC(=O)[C@H](Cc2ccccc2)NC(=O)[C@H](CCC(=O)O)NC(=O)[C@H](CO)NC(C)=O)CSSC[C@@H](C(=O)N[C@@H](CO)C(=O)N[C@@H](CCC(=O)O)C(=O)N[C@@H](C)C(N)=O)NC(=O)[C@H](CCCNC(=N)N)NC(=O)[C@H](Cc2c[nH]cn2)NC(=O)[C@H](CCC(=O)O)NC(=O)CNC(=O)[C@H](Cc2c[nH]c3ccccc23)NC(=O)[C@H](CC(=O)O)NC(=O)[C@H](CCC(N)=O)NC(=O)[C@H](Cc2cn(C)c3ccccc23)NC1=O

The target of the assay is Human C3 (Complement tech cat #A113c) (human, UniProt P01024 23-1663). Briefly: cell-based or functional assay.
Human C3 (Complement tech cat #A113c), sequence (P01024 23-1663 limits assumed): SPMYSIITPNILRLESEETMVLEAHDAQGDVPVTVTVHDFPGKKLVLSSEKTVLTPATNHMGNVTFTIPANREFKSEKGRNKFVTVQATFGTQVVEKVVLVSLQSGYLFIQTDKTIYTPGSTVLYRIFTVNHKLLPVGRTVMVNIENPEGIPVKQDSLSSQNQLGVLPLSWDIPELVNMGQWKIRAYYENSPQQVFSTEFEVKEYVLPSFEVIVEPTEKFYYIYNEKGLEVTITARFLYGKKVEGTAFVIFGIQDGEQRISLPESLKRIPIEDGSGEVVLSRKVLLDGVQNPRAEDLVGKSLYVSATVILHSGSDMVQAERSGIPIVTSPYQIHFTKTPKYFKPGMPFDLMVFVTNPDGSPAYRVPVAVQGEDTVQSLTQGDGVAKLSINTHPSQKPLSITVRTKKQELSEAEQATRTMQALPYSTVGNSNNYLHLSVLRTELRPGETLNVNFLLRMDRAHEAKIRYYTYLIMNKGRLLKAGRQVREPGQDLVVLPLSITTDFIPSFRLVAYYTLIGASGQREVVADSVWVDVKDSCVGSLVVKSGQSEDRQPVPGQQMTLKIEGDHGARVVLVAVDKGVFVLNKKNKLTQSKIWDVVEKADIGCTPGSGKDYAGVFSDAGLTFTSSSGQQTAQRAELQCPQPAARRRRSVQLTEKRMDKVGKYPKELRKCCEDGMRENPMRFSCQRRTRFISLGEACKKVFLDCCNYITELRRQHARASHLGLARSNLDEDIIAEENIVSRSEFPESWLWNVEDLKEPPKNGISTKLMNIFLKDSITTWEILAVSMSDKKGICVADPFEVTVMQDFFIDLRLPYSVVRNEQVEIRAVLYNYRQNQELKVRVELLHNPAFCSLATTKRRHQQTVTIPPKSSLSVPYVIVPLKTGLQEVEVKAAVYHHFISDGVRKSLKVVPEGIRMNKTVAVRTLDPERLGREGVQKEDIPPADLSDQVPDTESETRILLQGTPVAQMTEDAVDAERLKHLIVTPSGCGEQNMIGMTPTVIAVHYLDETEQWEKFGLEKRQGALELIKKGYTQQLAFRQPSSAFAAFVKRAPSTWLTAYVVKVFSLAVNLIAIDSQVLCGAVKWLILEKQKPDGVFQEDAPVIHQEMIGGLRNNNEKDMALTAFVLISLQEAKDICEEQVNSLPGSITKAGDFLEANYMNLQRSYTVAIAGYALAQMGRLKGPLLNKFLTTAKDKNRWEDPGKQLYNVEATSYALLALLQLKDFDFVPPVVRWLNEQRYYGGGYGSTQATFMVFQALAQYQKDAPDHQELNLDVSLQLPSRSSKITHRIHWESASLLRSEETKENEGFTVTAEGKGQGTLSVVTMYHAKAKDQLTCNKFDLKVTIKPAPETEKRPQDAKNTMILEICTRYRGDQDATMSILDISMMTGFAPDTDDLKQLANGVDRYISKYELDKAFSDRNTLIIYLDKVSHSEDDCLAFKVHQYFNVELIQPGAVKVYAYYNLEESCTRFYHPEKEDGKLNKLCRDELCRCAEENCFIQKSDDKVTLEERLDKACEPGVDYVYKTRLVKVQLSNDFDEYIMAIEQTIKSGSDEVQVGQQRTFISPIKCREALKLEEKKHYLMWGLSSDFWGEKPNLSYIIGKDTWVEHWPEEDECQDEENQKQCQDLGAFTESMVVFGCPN
Take B1: the “inhibition of hemolysis IC50” value is < 100 nM. With B2 the figure was < 100 nM; with B3, < 100 nM.

For the molecule B4, the “inhibition of hemolysis IC50” value is < 100 nM. With B5 the figure was < 100 nM.
